Experiments:
[1] = molecular target: Pins Linker peptide (residues 427-445), pSer436, TMR-labelled (Drosophila) (UniProt Q9VB22); assay: fluorescence polarisation; steady state anisotropy of 0.5 µM TMR-labelled Pins peptide (427-445) with increasing concentrations of Dlg constructs; 20 mM Tris pH 8, 100 mM NaCl, 1 mM DTT; nonlinear regression
[2] = molecular target: Pins Linker peptide (residues 427-445), pSer436, TMR-labelled (UniProt Q9VB22); assay: fluorescence polarisation; settings: read from the fitted curve at 20 µM Dlg-GK; parent: est. 0.11; read off a plot
[3] = molecular target: Pins Linker peptide (residues 427-445), unphosphorylated, TMR-labelled (Drosophila) (UniProt Q9VB22); assay: fluorescence polarisation; steady state anisotropy of 0.5 µM TMR-labelled Pins peptide (427-445) with increasing concentrations of Dlg constructs; 20 mM Tris pH 8, 100 mM NaCl, 1 mM DTT; nonlinear regression
[4] = molecular target: T1, Dlg SH3-GK ΔHook (residues 598-975 without 679-766), as it stands in the fusion (Drosophila, UniProt P31007-5 598-975, Δ679-766); assay: crystal structure; Dlg SH3-GK ΔHook and Pins Linker S436D joined on one chain; vapor diffusion, 2 M NaCl, 0.1 M NaOAc pH 4.6; data to 1.6 Å; one molecule in the asymmetric unit; settings: both partners purified
T1 construct: Existed only joined to m11 on one chain; written apart for the pair seen in the crystal structure; also called Dlg GK^dom and its adjacent SH3 domain; GK^dom; source: E. coli BL21(DE3), purified (NiNTA, anion exchange, size exclusion), as part of the fusion m8
T1 sequence (looked up): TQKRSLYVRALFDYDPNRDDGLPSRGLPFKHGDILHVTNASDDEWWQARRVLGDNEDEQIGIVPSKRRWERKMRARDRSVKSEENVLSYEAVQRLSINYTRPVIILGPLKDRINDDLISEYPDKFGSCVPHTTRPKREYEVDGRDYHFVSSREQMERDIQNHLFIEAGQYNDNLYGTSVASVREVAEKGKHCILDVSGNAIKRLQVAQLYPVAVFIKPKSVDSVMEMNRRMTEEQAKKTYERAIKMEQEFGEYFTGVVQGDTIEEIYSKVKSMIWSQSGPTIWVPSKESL

ΔHook/Pins^S436D fusion protein (Dlg 598-975 without 679-766, fused to Pins 411-460 S436D) (from UniProt P31007-5 598-975; Q9VB22 411-460)
Kd [1]: 14000 nM

Dlg SH3GK fused to Pins Linker without the phosphomimetic (from UniProt P31007-5 598-975; Q9VB22 411-460)
Kd [1]: 300 nM

Dlg SH3-GK module (domain or fragment)
Kd [1]: 300 nM

Dlg GK domain (isolated GK^dom) Y824A
response [2]: 0.11

Dlg GK domain (isolated GK^dom) Y831A
response [2]: 0.017

Dlg GK domain (isolated GK^dom) Y855A
response [2]: 0.08

Dlg GK domain (isolated GK^dom) (domain or fragment)
Kd [1]: 800 nM
Kd [3]: > 200000 nM

Dlg GK domain (isolated GK^dom) R822A
response [2]: 0.083

B1: Pins Linker (residues 411-460) S436D, as it stands in the fusion (domain or fragment, Drosophila, UniProt Q9VB22 411-460, looked up)
chain: DHSASGNQSDGSENSQGRMVRVRRQDMEQLDLIKITPDGKRMQEEKLRAQ
notes: Partner of Inscuteable (Pins), Linker, residues 411-460, phosphomimetic S436D; Existed only joined to m10 on one chain; written apart for the pair seen in the crystal structure; also called Pins^LINKER S436D; Pins^S436D; source: E. coli BL21(DE3), purified (NiNTA, anion exchange, size exclusion), as part of the fusion m8
binding result [4]: binds
